According to patent publication US20060257410A1 (CHEMOCENTRYX, published 2006):

Assays:
[1] = biological target: T1, mouse homolog of CCX CKR2 (mouse, UniProt P56485 1-362); assay: IHC on fixed paraffin embedded tissue sections
T1 construct: whole, on cells; also called mouse CCX-CKR2

CXCR2 = biological target: T2, CXCR2 (UniProt P25025 1-360, limits assumed); assay: flow cytometry on transfected HEK 293 cells
T2 construct: whole, on cells
T2 sequence (looked up): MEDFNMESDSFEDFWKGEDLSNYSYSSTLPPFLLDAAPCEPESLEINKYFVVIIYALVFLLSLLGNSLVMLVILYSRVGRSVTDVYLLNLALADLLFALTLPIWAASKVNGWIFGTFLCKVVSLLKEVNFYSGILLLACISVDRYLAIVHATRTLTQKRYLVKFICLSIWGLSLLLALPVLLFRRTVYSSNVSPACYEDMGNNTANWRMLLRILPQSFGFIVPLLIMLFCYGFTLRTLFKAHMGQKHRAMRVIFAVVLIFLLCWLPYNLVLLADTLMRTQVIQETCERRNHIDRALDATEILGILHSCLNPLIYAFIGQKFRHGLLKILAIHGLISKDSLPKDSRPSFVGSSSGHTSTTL

T1 sequence (P56485 whole entry): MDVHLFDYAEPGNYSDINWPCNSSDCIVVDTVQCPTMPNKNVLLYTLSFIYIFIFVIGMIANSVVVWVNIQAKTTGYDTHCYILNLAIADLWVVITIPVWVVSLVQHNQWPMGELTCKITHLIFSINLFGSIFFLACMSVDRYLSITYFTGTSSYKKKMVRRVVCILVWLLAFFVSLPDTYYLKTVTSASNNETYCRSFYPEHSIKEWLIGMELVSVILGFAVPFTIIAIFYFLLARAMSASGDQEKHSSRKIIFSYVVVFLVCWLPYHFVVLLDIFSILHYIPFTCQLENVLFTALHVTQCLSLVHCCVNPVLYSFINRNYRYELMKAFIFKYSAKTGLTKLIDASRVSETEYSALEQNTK

B1: monoclonal antibody 6E10 (antibody, V domains shown)
VH: EVKLDETGGGLVQPGRPMKLSCVASGFTFSDYWMNWVRQSPEKGLEWVGQIRNKPYNYETYYSDSVKGRFTISRDDSKSSVYLQMNNLRTEDTGIYYCTSLRYWGQGTLVTVSA
VL: DIVMTQSPSSLTVTAGEKVTMSCKSSHSLLNSGIQKNFLTWYQQKPGQPPKVLIYWAFTRESGVPERFTGSGSGTDFTLTISSVQAEDLAVYYCQSDYTYPFTFGSGTKLEIKR
notes: Mouse hybridoma monoclonal antibody raised by gene gun inoculation with CCX-CKR2 cDNA
B1: binds [1]; no binding (CXCR2).

B2: monoclonal antibody 11G8 (antibody, V domains shown)
VH: EVKLVESGGDLVQPGGSLKLSCATSGFTFSDYYMFWVRQTPEKRLEWVAYITNGGDRSYYSDTVTGRFIISRDNAKNTLYLQMSRLKSEDTAMYYCARQGNWAAWFVYWGQGTLVTVSA
VL: DVLMTQTPLSLPVSLGDQASISCRSSHYIVHSDGNTYLEWYLQKPGQSPKLLIYKVSNRFSGVPDRFSGSGSGTDFTLKISRVEAEDLGIYYCFQGSHVPLTFGAGTKLELKR
notes: as for B1
B2: binds [1]; no binding (CXCR2).
